According to publication PMC9022993:

Target: human parkin, full-length, affinity tag cleaved (human) (UniProt O60260)
Assay: ITC; parkin (20 µM in 162 µl) in the cell titrated with the chimera (mG2-Ub 100 µM, CISD1-Ub 212 µM, mG2-pUb 84 µM, CISD1-pUb 106 µM); 18°C or 25°C; 25 mM HEPES or 20 mM Tris, 100 mM NaCl, 250 µM TCEP, pH 7.5 or 8.0; duplicate; single-site model

human parkin, full-length, affinity tag cleaved (human), sequence (O60260 whole entry): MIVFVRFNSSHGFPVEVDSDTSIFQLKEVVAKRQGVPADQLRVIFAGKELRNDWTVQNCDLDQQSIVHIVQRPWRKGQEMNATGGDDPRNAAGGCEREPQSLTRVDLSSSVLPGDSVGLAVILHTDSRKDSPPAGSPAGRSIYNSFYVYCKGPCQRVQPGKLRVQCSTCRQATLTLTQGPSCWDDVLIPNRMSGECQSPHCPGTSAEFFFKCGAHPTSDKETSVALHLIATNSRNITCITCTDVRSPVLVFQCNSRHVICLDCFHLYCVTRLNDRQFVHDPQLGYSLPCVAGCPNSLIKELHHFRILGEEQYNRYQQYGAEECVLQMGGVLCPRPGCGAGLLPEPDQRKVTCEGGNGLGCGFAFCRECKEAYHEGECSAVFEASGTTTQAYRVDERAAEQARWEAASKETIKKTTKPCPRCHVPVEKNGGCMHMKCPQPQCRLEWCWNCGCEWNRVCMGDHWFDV

## mG2-pUb (mG2-Ub phosphorylated by PINK1 at S65 of its Ub) (from UniProt Q8IXI2 402-582; P0CG63 1-76)
  Kd: 0.92 µM
  dH: 9.8 kcal/mol

## CISD1-pUb (CISD1-Ub phosphorylated by PINK1 at S65 of its Ub) (from UniProt Q9NZ45 32-108; P0CG63 1-76)
  Kd: 0.45 µM
  dH: 7.17 kcal/mol
